Results: US20120028900A1
Values belong to the substance of their own block, whether it stands above or below them.

Key:
[1] = target: A1/A3-C1-C2 heterodimer of thrombin-cleaved FVIII (human) (UniProt P00451); assay: optical biosensor, after thrombin cleavage of purified protein
[2] = target: von Willebrand factor (vWF) (human) (UniProt P04275); assay: in vitro binding to vWF; method not given
[3] = target: von Willebrand factor (vWF) (human) (UniProt P04275); assay: summary of ELISA and biosensor results
[4] = target: von Willebrand factor (vWF) (human) (UniProt P04275); assay: ELISA and affinity biosensor analysis
[5] = target: von Willebrand factor (vWF) (human) (UniProt P04275); assay: FVIII-vWF binding ELISA; anti-A2 domain trap, vWF from FVIII-deficient plasma, peroxidase anti-vWF detection
[6] = target: FVIII mutant M/F/L 2199/2200/2252 W/W/S (UniProt P00451)
[7] = target: FVIII mutant M/F 2199/2200 W/W (UniProt P00451)
[8] = target: FVIII mutant L/L 2251/2252 L/S (L2252S) (UniProt P00451)
wild-type FVIII (human) = wild-type FVIII (human) (UniProt P00451); assay: cell-based or functional assay
[9] = target: IR8 (90/b/73 R336I/R562K/R740A; del795-1688/Arg336Iso/Arg562Lys/Arg740Ala) (human) (UniProt P00451); assay: cell-based or functional assay
[10] = target: IR8 (90/b/73 R336I/R562K/R740A; del795-1688/Arg336Iso/Arg562Lys/Arg740Ala) (human) (UniProt P00451); assay: biosensor; IR8 (30 nM) captured on immobilised Mab NMC-VIII/5, vWF added at 10 nM

fold increased rate of A2 subunit dissociation compared to a B domainless FVIII control [1]: 2 fold
Substance: A2 subunit of thrombin-cleaved R698L B-domainless FVIII (from UniProt P00451 392-759)

Kd [2]: 0.3 nM
Substance: wild-type FVIII (from UniProt P00451 20-2351)

fold lower affinity than FVIII WT [3]: > 10 fold | fold reduced affinity compared to rFVIII [4]: 20 fold | fold lower binding affinity compared to wild-type FVIII [5]: 10 fold
Substance: IR8 (90/b/73 R336I/R562K/R740A; del795-1688/Arg336Iso/Arg562Lys/Arg740Ala) (from UniProt P00451 20-812; P00451 1708-2351)

fold lower binding affinity compared to wild-type FVIII [5]: 2 fold | Kd [2]: 1.3 nM
Substance: IR8/ESH8 complex (from UniProt P00451 20-812; P00451 1708-2351)

Substance: factor IXa
apparent affinity for factor IXa, Xase assay with 15% PS [6]: reduced 5-fold | apparent affinity of factor IXa, Xase assay with saturating PL, 1000 uM [6]: decreased approximately 4-fold | apparent affinity for factor IXa, Xase assay with 15% PS [7]: reduced 5-fold | apparent affinity of factor IXa, Xase assay with saturating PL, 1000 uM [7]: decreased approximately 4-fold | apparent affinity for factor IXa, Xase assay with 15% PS [8]: reduced 5-fold | apparent affinity of factor IXa, Xase assay with saturating PL, 1000 uM [8]: decreased approximately 4-fold

% Of Initial Activity, +ESH8 (APTT after 4 hour incubation at 37 C with FVIII-deficient plasma) (wild-type FVIII (human)): 29% | % Of Initial Activity, +ESH8 (APTT after 4 hour incubation at 37 C with FVIII-deficient plasma) [9]: 120%
Substance: ESH8, mouse monoclonal anti-light chain factor VIII antibody (American Diagnostica)

fold increased rate of A2 subunit dissociation compared to a B domainless FVIII control [1]: 3 fold
Substance: A2 subunit of thrombin-cleaved R698W B-domainless FVIII (from UniProt P00451 392-759)

Kd [10]: 29.6 nM | koff [10]: 0.0042 s⁻¹ | kon [10]: 140000 M⁻¹ s⁻¹
Substance: von Willebrand factor (vWF) (from UniProt P04275 764-2813)
